Data on 9 sequences can be found in patent publication US10138493.

What all share (test): cell_activity
One data set concerns synTF ZF 2-6. The following applies: 1x reporter, HEK293FT; KRAB and HP1 fusions also repress.
A further data set concerns synTF ZF 4-8. The settings on record: 1x reporter, HEK293FT; KRAB and HP1 fusions also repress.
The subject of a further data set is synTF ZF 3-5. The settings on record: 1x reporter, HEK293FT; KRAB and HP1 fusions also repress.
The next data set concerns synTF ZF 7-3. The following applies: 1x reporter, HEK293FT; KRAB and HP1 fusions also repress.
In a further data set the test system is synTF ZF 8-1. The settings on record: 1x reporter, HEK293FT; KRAB and HP1 fusions also repress.
In the next data set the test system is synTF ZF 5-7. The following applies: 1x reporter, HEK293FT; KRAB and HP1 fusions also repress.
A further data set deals with synTF ZF 1-3. The settings on record: 1x reporter, HEK293FT; KRAB and HP1 fusions also repress (p284, p286).
The subject of a further data set is synTF ZF 6-4. The settings on record: 1x reporter, HEK293FT; KRAB and HP1 fusions also repress.
The test system of a further data set is synTF ZF 9-2. The following applies: 1x reporter, HEK293FT; KRAB and HP1 fusions also repress.

In the data set on synTF ZF 2-6, “GGACGACGTTACGGACGTAC (double strand) [Target 2]” showed an activity (fold GFP activation) above 10.

Take “GGACGACGCCGATGTAGAAG (double strand) [Target 4]”: the activity (fold GFP activation) in the data set with synTF ZF 4-8 is above 10. In the data set with synTF ZF 3-5, “AGACGTCGAAGTAGCCGTAG (double strand) [Target 3]” registered an activity (fold GFP activation) above 10. The sequence “CGACGAGGTCGCATAAGTAG (double strand) [Target 7]” yielded an activity (fold GFP activation) with synTF ZF 7-3 above 10. “AGACGCAGTATAGGTCGAAC (double strand) [Target 8]”: the activity (fold GFP activation) with synTF ZF 8-1 is above 10.

Turning to “TGAAGCAGTCGACGCCGAAG (double strand) [Target 5]”, the activity (fold GFP activation) with synTF ZF 5-7 is above 10. “CGTCGAAGTCGAAGTCGACC (double strand) [Target 1]”: the activity (fold GFP activation) in the data set on synTF ZF 1-3 is above 10. In turn, “GGACGACGCGGTCTAAGAAG (double strand) [Target 6]” came in with an activity (fold GFP activation) with synTF ZF 6-4 above 10. As to “AGACGCAGTATAGGACGACG (double strand) [Target 9]”, in the data set on synTF ZF 9-2, the activity (fold GFP activation) was above 10.
